# Experiment: soluble on expression in E. coli; label from the status in PepcDB or PDB records
row,Sequence,soluble on expression in E. coli
1,MQQRMGAMPMAVLYPQSYLPHSAVPCPAPGYGNMFSGYGAAPVMMMVAGNAPYPVNAHFGHSATPMYFAMDPANSAAPMAVVADAASVCATPKAKLAHSGSGNSLSTQSCCSGGETPSLLSRSAASSTVKQRPHHDVNVWGFALVDQLHPSLQRIPVPLSCLHEPTMGISLYDNNVMSSSTRPCKSSVCLLHAQGLGCAEGSRCRCFHVSSAYLMQCRATSESLCCALHNCYYSQEMLGANCAPHVSGRCYALSLDDASKFPQDGEKPYLINLSLLNLSLTVGLETLPCVNSVYVVSWKKHVCRLSMDGLCKWTKDCGHIHVCRQLTRFLQDAETLSIVKTLQERTRPKSSAELYRDIILSENTLRYVRSVAALSLVAALLEAGDVEALKTLARAKCALLPSQSEALQKLGIALSGSDSTRSVTVSPKLLALLTPKGTN,not soluble
2,MQREDDPDAYDVIWASNGTLYFTPGFKYNTPPYPANQRVLATTDNIALTNYLRQEYNKLKESEGTPTLNDIINGFGFCYNDSSNGAGLDGTYLTVSGMLDNKYRLQLLGQYNGSNWLAYRTRNGDEQSWNPWHKVLTDNINAAISARHQYTSSSYPQIYGNGILQLGGDSRNEYGVVLRSNGTDEANAFRPSVNAGTTGHLYLGVANQKWRAVFAQNGTIQTSDRNAKHDITDLDPEKITAFIMGLKPSSYVFNDADSGRTHWGLISQDIEELFPQLGMTSMDFAGFIKSPKTEDYYEDVPETVTDEETGEEKTVTRKELKTRTVEGEYIYSLRYDEFIAPLICMVQRQQRQIEYLERRLSASESKEEAKLEHHHHHH,soluble
3,MQRIPCVLMRGGTSKGPFFHAWDLPANVVERDELLINLMGSGHELEIDGIGGGSPQTSKVAIISPSLHADADVDYLFVQVMVAQRRVDTAPNCGNMLCAVGPFAIEQGLVKGQEGKTLVRIRNLNTGTFVNSLVETPGGIVRYEGRTAIDGVPGTAAPVHLTFLDAVGSKTGKLFPTGKAQDVIDGVPVTCIDMAMPMMVVEASQLGVSGSETPAQLDANSALLERLEALRLKAGKAMGLGDVSGMVIPKPVLVSKPRYDGTLQVRYFMPHNCHRALAITGAVGLATACVSPGTVIADLLGEGAQQLAQVRLEHPSGGIDVALTRSGAEGQTIQASVVRTARRLFSGFVYAPTFRRLAGLEHHHHHH,soluble
4,MQRMNFSSLIETFAVDFQLVLPSVEGAGKYIHGEWFPTNEEPKTVSGAIIPYDNRTIYQSGGTLTSSDRQLAYVGSIPLGSKIIDMGKEYKVESEEPYAEHYADVNLYRLKAVTNNAAN,not soluble
5,MQRRGQLSRRLVNSADRDPSDENSLSRAPAPACTSRGTHVVETTSLKRHSKVLRSQDASGTAESVNSQTPDDEVDHTLWTLVREVSDAEAAFWALRNDSRLLGFVLRSQLLALVHDDSSVTDFLEAAQQPTDVGDVQAEFILCWVPVPGGPAILWRADYQRLIEEQVARRLSELEDPARKAALWGTTREQVERDTHIRAADGSCWLRTLPCPPSVIRALTQGQKALVQQVKRMGRYGRLPLHRAELLRLSRTCFSARFHILDAVGCGTLALDAQNTLSKEPYLCLPEVRTTNIVDSGEIGF,not soluble
6,MQRYFVEEKYVNETSIRIVGDDVHHIARVMRMSAGDHIYCCVNGKTAVCSIDEITSEFINTAIVEWVEASSELPVFVTIASGLPKGDKLELIFQKGTELGAAAFLPFQASRSIVKWDAKKADKKVERLRKIVKEAAEQSHRSEIPEVHAPASFKQLLSMSGEYDTCLVAYEEEAKQGEKSNFAKALTTMKPGQKLLIVFGPEGGLAEEEITALREHKFVPCSLGPKNFKNRNGAVIRVKCCFVSF,not soluble
7,MQRYKLPVSVLVVIYTADLQVLLLERADHPGYWQSVTGSQDPGETLLQTAVREVREETGLNTDDYVLSDWQIQNRYEIFEEWNWRYPPGTTHNTEHVFGLELPKTIPAVVSSREHLGYVWLPWREAAEKVFSSSNACAIRMLASKRKSENSR,not soluble
8,MQSAYSFLPQVIAHRGSSGQAPENTLASLHLAGQQGIKWVEIDVMLSGDGIPVIFHDDYLSRTTDGDGLIYKTPLAELKQLDAGSWKGQEYQQETIPTLLEAIEVISQYGMGLNLELKPCEGLEEETIAASVEVLKQHWPQDLPLLFSSFNYFALVSAKALWPEIARGYNVSAIPSAWQERLEHLDCAGLHIHQSFFDVQQVSDIKAAGYKVLAFTINDESLALKLYNQGLDAVFSDYPQKIQSAIDSHIN,soluble
9,MQSVDVAIVGGGMVGLAVACGLQGSGLRVAVLDHVVPQPLANDASPQLRVSAINAASEKLLTRLGVWSNIVARRASCYHGMEVRDKDSFGRITFDDASMGYSHLGHIVENSVIHYALWQKAQQAADITLMAPAELQQVAWGENDAFLTLKDGAMLTARLVIAADGANSWLRNKADIPLTFWDYRHHALVATIRTEEPHGAVARQVFHGEGILAFLPLSDPHLCSIVWSLSPQDAERMQQSGDEAFNQALTIAFDNRLGLCRLESERQVFPLTGRYARQFAAHRLALVGDAAHTIHPLAGQGVNLGFMDAAELVDNLRRLQRQGKDIGQHLYLRRYERSRKHSAAMMLAGMQGFRDLFAGENPAKKLLRDIGLKLADTLPGVKPQLLRQAMGLNDLPQWLRLEHHHHHH,not soluble
10,MQTVGVHSIVQQLHRNSIQFTDGYEVKEDIGVGSYSVCKRCIHKATNMEFAVKIIDKSKRDPTEEIEILLRYGQHPNIITLKDVYDDGKYVYVVTELMKGGELLDKILRQKFFSEREASAVLFTITKTVEYLHAQGVVHRDLKPSNILYVDESGNPESIRICDFGFAKQLRAENGLLMTPCYTANFVAPEVLERQGYDAACDIWSLGVLLYTMLTGYTPFANGPDDTPEEILARIGSGKFSLSGGYWNSVSDTAKDLVSKMLHVDPHQRLTAALVLRHPWIVHWDQLPQYQLNRQDAPHLVKGAMAATYSALNRNQSPVLEPVGRSTLAQRRGIKKITSTAL,soluble
11,MQVDYQQLNGIALAYLGDAVYEPFIRQHLIESGFTKATKLHHHATHYVSAKAQAALIERMQAEEVLTPTEVDVFKRGRNAKSHTSAKHTDVVTYRISTGFEAVFGYLQLTQQADRIAELAQWCIKQVDEGRVSSVKLEHHHHHH,soluble
12,MQVIVGHSSTRLPENNENGHTHKWTLFVKPGNRDYDEFPDNKLIQKVKFEIHESFAQPVRFVTKPPFKITETGFASFTTLVTIFLNLPNEKPRTIPYELTLFTGDQDVQLETQKLVVQKDVPPAYLELIKKYARTKKRKASLISNDEKSPSRKMHKITPVKEEESSQKMSKSKEKGVPIPKIDIEIEKASPKKEKKEKVKSPEELTRRLNECTDSHVIYKASEYLLTLPDTKLSQTTLKLSFDLSRCDSTTLMDIGRILKGKKAKK,not soluble
13,MQVKILDTTLRDGEQTPGVSLSVEQKVMIAEALDNLGVDIIEAGTAIASEGDFQAIKEISQRGLNAEICSFARIKREDIDAAADAGAESIFMVAPSSDIHINAKFPGKDRDYVIEKSVEAIEYAKERGLIVEFGAEDASRADLDFVIQLFKRAEEAKADRITFADTVGVLSPEKMEEIVRKIKAKVKLPLAIHCHDDFGLATANTIFGIKAGAEEFHGTINGLGERAGNAAIEEVVIALEYLYGIKTKIKKERLYNTSKLVEKLSRVVVPPNKPIVGDNAFTHESGIHTSALFRDAKSYEPISPEVVGRKRVIVLGKHAGRASVEAIMNELGYKATPEQMKEILARIKEIGDKGKRVTDADVRTIIETVLQIKREKKVKLEDLAIFSGKNVMPMASVKLKIDGQERIEAAVGLGPVDAAINAIRRAIKEFADIKLVSYHVDAITGGTDALVDVVVQLKKDNKIVTARGARTDIIMASVEAFIEGINMLF,not soluble
14,MQVKLGFTEHSFNLIVSSTSMFKNLLASVGIGAAKVDTRLFNNSVIPGGILEGEVYIRGGDVAQDIQDIYLKLATEYQREVDDSTVTEECVMVNYRLLEHLTIQPKEEVVIPFSLNLPDEMPLTFGHIPVYVRTGLDIKSAINPRDRDYLEVRTHPLMQRVLLAIEHLGFHLHKVDCEYTHYFGGAYPFVQELEFRPTGKYRHSLDELEVVFRLTADQLEVLLEIDKRARGWKGWLEEAFDIDERYARLIVKQSDLYETDVEALIDQIIQSHLS,not soluble
15,MQVNIILLAAGKGQRFQSSSPNKIGCATIKQLARINDKPLIVHSIDKLQPLLKNAYVHNFFVTLGANKNAIQTVLPQDISVIASQHWAEGMGHTLAESVHSIKATSSHVLVALADQALITTEHYQELLSASKEQPNKIIATLCEGQLMAPAIFPEKYFPLLVKIQGDKGAGKLLLQHAKKADAITCEDAKIDIDTFSDLERVRQHLEYALQDNQQSSL,not soluble
16,MQVSVRDNNVDQALRALKKKLQREGVFREMKLKQHFEKPSEKKAREKAEAIRRARKLARKKAQREGMLLEHHHHHH,not soluble
